Target: LFA-1 I domain I domain (Homo sapiens, UniProt P20701)
Assay: SPR

B1: ICAM-1 (protein)
chain: QTSVSPSKVILPRGGSVLVTCSTSCDQPKLLGIETPLPKKELLLPGNNRKVYELSNVQEDSQPMCYSNCPDGQSTAKTFLTVYWTPERVELAPLPSWQPVGKNLTLRCQVEGGAPRANLTVVLLRGEKELKREPAVGEPAEVTTTVLVRRDHHGANFSCRTELDLRPQGLELFENTSAPYQLQTFVLPATPPQLVSPRVLEVDTQGTVVCSLDGLFPVSEAQVHLALGDQRLNPTVTYGNDSFSAKASVSVTAEDEGTQRLTCAVILGNQSQETLQTVTIYSFPAPNVILTKPEVSEGTEVTVKCEAHPRAKVTLNGVPAQPLGPRAQLLLKATPEDNGRSFSCSATLEVAGQLIHKNQTRELRVLYGPRLDERDCPGNWTWPENSQQTPMCQAWGNPLPELKCLKDGTFPLPIGESVTVTRDLEGTYLCRARSTQGEVTRKVTVNVLSPRYE
Kd: 1500 µM

— article PMC5662687 (2017)
